# Test results as given in article PMC8920257.
# Assays:
# Assay in all cases: SPR
# ACE2 p.Asp355Asn (human) = ACE2 p.Asp355Asn (human) (UniProt Q9BYF1)
# ACE2 p.Glu329Gly (human) = ACE2 p.Glu329Gly (human) (UniProt Q9BYF1)
# ACE2 p.Glu35Lys (human) = ACE2 p.Glu35Lys (human) (UniProt Q9BYF1)
# ACE2 p.Glu37Lys (human) = ACE2 p.Glu37Lys (human) (UniProt Q9BYF1)
# ACE2 p.Gly326Glu (human) = ACE2 p.Gly326Glu (human) (UniProt Q9BYF1)
# ACE2 p.Lys26Arg (human) = ACE2 p.Lys26Arg (human) (UniProt Q9BYF1)
# ACE2 p.Phe40Leu (human) = ACE2 p.Phe40Leu (human) (UniProt Q9BYF1)
# ACE2 p.Pro389His (human) = ACE2 p.Pro389His (human) (UniProt Q9BYF1)
# ACE2 p.Ser19Pro (human) = ACE2 p.Ser19Pro (human) (UniProt Q9BYF1)
# ACE2 p.Thr27Arg (human) = ACE2 p.Thr27Arg (human) (UniProt Q9BYF1)
substance,measurement,setting,value
SARS-CoV-2 Spike receptor binding domain (from UniProt P0DTC2) (domain or fragment),SPR ΔΔG against ACE2 WT,ACE2 p.Asp355Asn (human),< -3.16 kcal/mol
same,SPR ΔΔG against ACE2 WT,ACE2 p.Glu329Gly (human),-0.09 kcal/mol
same,ΔΔG against ACE2 WT,ACE2 p.Glu329Gly (human),-0.06 kcal/mol
same,SPR ΔΔG against ACE2 WT,ACE2 p.Glu35Lys (human),-0.36 kcal/mol
same,ΔΔG against ACE2 WT,ACE2 p.Glu35Lys (human),-0.29 kcal/mol
same,SPR ΔΔG against ACE2 WT,ACE2 p.Glu37Lys (human),-1.33 kcal/mol
same,ΔΔG against ACE2 WT,ACE2 p.Glu37Lys (human),-1.25 kcal/mol
same,SPR ΔΔG against ACE2 WT,ACE2 p.Gly326Glu (human),-0.65 kcal/mol
same,ΔΔG against ACE2 WT,ACE2 p.Gly326Glu (human),-0.67 kcal/mol
same,SPR ΔΔG against ACE2 WT,ACE2 p.Lys26Arg (human),0.26 kcal/mol
same,ΔΔG against ACE2 WT,ACE2 p.Lys26Arg (human),0.31 kcal/mol
same,SPR ΔΔG against ACE2 WT,ACE2 p.Phe40Leu (human),0.11 kcal/mol
same,ΔΔG against ACE2 WT,ACE2 p.Phe40Leu (human),0.14 kcal/mol
same,SPR ΔΔG against ACE2 WT,ACE2 p.Pro389His (human),0.27 kcal/mol
same,ΔΔG against ACE2 WT,ACE2 p.Pro389His (human),0.12 kcal/mol
same,SPR ΔΔG against ACE2 WT,ACE2 p.Ser19Pro (human),0.59 kcal/mol
same,SPR ΔΔG against ACE2 WT,ACE2 p.Thr27Arg (human),-0.11 kcal/mol
